Data from the supplement of paper PMC9112550, “Optimization of the antimicrobial peptide Bac7 by deep mutational scanning” (BMC Biology, 2022).

Test system: Escherichia coli TOP10
Assay: shrunken log2 fold change of peptide-encoding DNA abundance (4.5 h post-induction vs induction); higher = less antimicrobial activity (less host growth inhibition)
Settings: time post-induction: 4.5 h; library: site-saturation at positions 5, 18, 19, 20
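Also: peptides expressed intracellularly from a pBAD plasmid library in pooled LB shake-flask culture, induced with 0.3% L-arabinose, DNA abundance read by NGS, three biological replicates, DESeq2 with apeglm shrinkage.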

## RRIRIRPPRLPRPRPRPEEQPRP
  shrunken log2 fold change: 0.0175

## RRIRDRPPRLPRPRPRPWSHPRP
  shrunken log2 fold change: 0.0226

## RRIRWRPPRLPRPRPRPQREPRP
  shrunken log2 fold change: 0.0297

## RRIRNRPPRLPRPRPRPNHPPRP
  shrunken log2 fold change: -0.318

## RRIRARPPRLPRPRPRPWDHPRP
  shrunken log2 fold change: -0.00959

## RRIRMRPPRLPRPRPRPQFRPRP
  shrunken log2 fold change: -0.235

## RRIRVRPPRLPRPRPRPTLNPRP
  shrunken log2 fold change: -0.102

## RRIRGRPPRLPRPRPRPDNAPRP
  shrunken log2 fold change: 0.364

## RRIRARPPRLPRPRPRPPESPRP
  shrunken log2 fold change: 1.02

## RRIRARPPRLPRPRPRPADIPRP
  shrunken log2 fold change: -0.245

## RRIRYRPPRLPRPRPRPVLKPRP
  shrunken log2 fold change: -0.122

## RRIRARPPRLPRPRPRPIMWPRP
  shrunken log2 fold change: 0.217

## RRIRMRPPRLPRPRPRPILEPRP
  shrunken log2 fold change: 0.142

## RRIRYRPPRLPRPRPRPGFGPRP
  shrunken log2 fold change: -0.0613

## RRIRTRPPRLPRPRPRPFKNPRP
  shrunken log2 fold change: 0.0716

## RRIRDRPPRLPRPRPRPDIFPRP
  shrunken log2 fold change: 0.171

## RRIRYRPPRLPRPRPRPGKNPRP
  shrunken log2 fold change: -0.13

## RRIRVRPPRLPRPRPRPSQLPRP
  shrunken log2 fold change: -0.234

## RRIRFRPPRLPRPRPRPAIVPRP
  shrunken log2 fold change: -0.0488

## RRIRERPPRLPRPRPRPIDHPRP
  shrunken log2 fold change: -0.379

## RRIRARPPRLPRPRPRPQKNPRP
  shrunken log2 fold change: 0.0395

## RRIRQRPPRLPRPRPRPCCFPRP
  shrunken log2 fold change: 0.0639

## RRIRVRPPRLPRPRPRPLMVPRP
  shrunken log2 fold change: -0.443

## RRIRTRPPRLPRPRPRPIRRPRP
  shrunken log2 fold change: 0.0581

## RRIRYRPPRLPRPRPRPVFQPRP
  shrunken log2 fold change: -0.503

## RRIRIRPPRLPRPRPRPGMMPRP
  shrunken log2 fold change: -0.453

## RRIRWRPPRLPRPRPRPAAAPRP
  shrunken log2 fold change: 1.21

## RRIRYRPPRLPRPRPRPGMGPRP
  shrunken log2 fold change: -0.195

## RRIRDRPPRLPRPRPRPIYLPRP
  shrunken log2 fold change: 2.37

## RRIRKRPPRLPRPRPRPENTPRP
  shrunken log2 fold change: 0.44

## RRIRMRPPRLPRPRPRPLAQPRP
  shrunken log2 fold change: 0.634

## RRIRVRPPRLPRPRPRPGSTPRP
  shrunken log2 fold change: -0.311

## RRIRDRPPRLPRPRPRPASAPRP
  shrunken log2 fold change: 0.616

## RRIRARPPRLPRPRPRPPDMPRP
  shrunken log2 fold change: 0.778

## RRIRMRPPRLPRPRPRPVLMPRP
  shrunken log2 fold change: 0.229

## RRIRGRPPRLPRPRPRPYAMPRP
  shrunken log2 fold change: 0.451

## RRIRWRPPRLPRPRPRPMWRPRP
  shrunken log2 fold change: 0.328

## RRIRCRPPRLPRPRPRPQPFPRP
  shrunken log2 fold change: 0.00986

## RRIRKRPPRLPRPRPRPFVPPRP
  shrunken log2 fold change: -0.297

## RRIRGRPPRLPRPRPRPTSYPRP
  shrunken log2 fold change: 0.105

## RRIRSRPPRLPRPRPRPHYRPRP
  shrunken log2 fold change: 0.0349

## RRIRMRPPRLPRPRPRPYWMPRP
  shrunken log2 fold change: -1.18

## RRIRQRPPRLPRPRPRPEVHPRP
  shrunken log2 fold change: 0.038

## RRIRGRPPRLPRPRPRPFRKPRP
  shrunken log2 fold change: -0.0984
